These results are taken from PMC11066036, “HPK1 citron homology domain regulates phosphorylation of SLP76 and modulates kinase domain interaction dynamics” (Nature Communications, 2024).

First the molecules themselves.
B2: HPK1 intact citron homology domain fragment (C428-E821), untagged (domain or fragment, UniProt Q92918-2 428-821, looked up)
chain: CASGPPPNSPRPGPPPSTSSPHLTAHSEPSLWNPPSRELDKPPLLPPKKEKMKRKGCALLVKLFNGCPLRIHSTAAWTHPSTKDQHLLLGAEEGIFILNRNDQEATLEMLFPSRTTWVYSINNVLMSLSGKTPHLYSHSILGLLERKETRAGNPIAHISPHRLLARKNMVSTKIQDTKGCRACCVAEGASSGGPFLCGALETSVVLLQWYQPMNKFLLVRQVLFPLPTPLSVFALLTGPGSELPAVCIGVSPGRPGKSVLFHTVRFGALSCWLGEMSTEHRGPVQVTQVEEDMVMVLMDGSVKLVTPEGSPVRGLRTPEIPMTEAVEAVAMVGGQLQAFWKHGVQVWALGSDQLLQELRDPTLTFRLLGSPRPVVVETRPVDDPTAPSNLYIQE
notes: HPK1 (MAP4K1), fragment left after thrombin cut after R427: two PR domains and the intact CHD, residues C428-E821; the protein is printed as M1-E821 (821 residues); Cut out of a full-length construct (T165E, S171E, R319A, thrombin site inserted after V384); none of these changes lies in the fragment; also called WT-CHD; CHD WT; source: sf9, purified; thrombin digest of full-length HPK1 (Ni, …)

In one assay the target is T1, HPK1 ΔCHD with LgBit tag (UniProt Q92918 1-483).
T1 construct: HPK1 (MAP4K1) without the CHD, M1-G483; limits as printed for the pMSCV construct of the same name; also called KD + 4PRs; source: HPK1-/- Jurkat cells, transiently transfected, in live cells
T1 sequence (looked up): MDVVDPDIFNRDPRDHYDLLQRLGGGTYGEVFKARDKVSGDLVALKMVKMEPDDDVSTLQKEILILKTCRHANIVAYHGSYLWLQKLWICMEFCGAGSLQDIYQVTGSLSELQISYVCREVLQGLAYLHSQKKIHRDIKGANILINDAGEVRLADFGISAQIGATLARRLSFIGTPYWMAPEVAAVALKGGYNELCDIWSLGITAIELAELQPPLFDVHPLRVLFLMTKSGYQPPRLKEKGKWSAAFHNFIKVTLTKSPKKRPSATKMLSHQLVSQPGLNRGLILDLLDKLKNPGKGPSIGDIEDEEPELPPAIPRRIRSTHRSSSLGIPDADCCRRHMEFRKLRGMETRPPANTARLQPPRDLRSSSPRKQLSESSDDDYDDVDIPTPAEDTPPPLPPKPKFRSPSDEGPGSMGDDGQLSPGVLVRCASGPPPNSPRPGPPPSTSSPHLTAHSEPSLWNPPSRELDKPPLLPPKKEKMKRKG
Put plainly: split reporter (BiFC, NanoBiT); NanoBit in live HPK1-/- Jurkat cells transiently transfected with SmBit-tagged SLP76 and LgBit-tagged HPK1 forms; luminescence over time, with or without TCR stimulation (anti-CD3 and anti-IgG). Particulars: partners not purified.

For assay [1], the target named is full-length HPK1 (M1-E821, T165E, S171E, R319A, Y381E) with N-terminal His tag and C-terminal Flag (UniProt Q92918-2 1-821, T165E | S171E | R319A | Y381E, Isoform 2 (821 aa): C-terminus taken from 8EEC (entity position = residue - 478). N-terminal His and C-terminal Flag left out. A thrombin site after V384 may be present, but its sequence and its prese). The experiment in a line: AlphaScreen or HTRF; TR-FRET competition; 5 nM full-length HPK1 with C-terminal Flag labelled with anti-KD Fab-streptavidin-Lumi4Tb and anti-Flag-d2; untagged CHD titrated (23.84-97.65 µM as printed) against the KD-CHD interaction within the full-length protein; One site - Fit Ki. The note with it: both partners purified. For orientation: In Alpha technology, singlet oxygen from a donor bead excites a nearby acceptor bead.

Assay [2] deals with B2. The experiment in a line: SPR; Biacore T200; KD variants captured (56-73 RU) by a biotinylated anti-KD Fab on NeutrAvidin chip; WT-CHD injected as analyte at various concentrations; 20 mM HEPES, 300 mM NaCl, 0.1% polysorbate 20, 0.5 mM TCEP, pH 7.4; 25 °C. Particulars: both partners purified.
Assay [3] concerns the target T2, HPK1 intact citron homology domain fragment with C-terminal Flag (Flag-CHD) (UniProt Q92918-2 428-821).
T2 construct: HPK1 (MAP4K1), intact CHD fragment from thrombin digestion of the full-length protein; the cut is told as after R427 (C428-E821) for the untagged construct; the protein is printed as M1-E821 (821 residues); the Flag form was made by the same digestion; also called intact CHD with C-flag; recombinant Flag-CHD; source: sf9, purified; thrombin digest of full-length HPK1 with C-terminal Flag (Ni, …)
T2 sequence (looked up): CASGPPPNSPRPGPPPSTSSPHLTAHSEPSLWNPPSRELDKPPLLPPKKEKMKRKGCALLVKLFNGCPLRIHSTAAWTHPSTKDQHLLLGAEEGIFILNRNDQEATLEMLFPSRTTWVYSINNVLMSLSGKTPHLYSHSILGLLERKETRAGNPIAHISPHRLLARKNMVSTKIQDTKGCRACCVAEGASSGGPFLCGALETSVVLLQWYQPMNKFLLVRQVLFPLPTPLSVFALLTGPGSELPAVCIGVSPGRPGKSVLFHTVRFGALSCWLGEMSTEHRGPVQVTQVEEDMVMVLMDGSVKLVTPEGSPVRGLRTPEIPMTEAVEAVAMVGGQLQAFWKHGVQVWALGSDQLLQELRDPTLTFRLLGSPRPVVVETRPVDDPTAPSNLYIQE
Put plainly: AlphaScreen or HTRF; TR-FRET saturation binding; KD at 5 µM constant, Flag-CHD 1.53 nM-6.25 µM; anti-KD biotinylated Fab with streptavidin-Lumi4Tb and anti-Flag-d2; 20 mM HEPES, 300 mM NaCl, 0.1% polysorbate 20, 0.5 mM TCEP, pH 7.4; apparent KD, called overestimated by the paper. Particulars: both partners purified.

B1: SLP76 with SmBit tag (natural protein, UniProt Q13094 1-533, looked up)
chain: MALRNVPFRSEVLGWDPDSLADYFKKLNYKDCEKAVKKYHIDGARFLNLTENDIQKFPKLRVPILSKLSQEINKNEERRSIFTRKPQVPRFPEETESHEEDNGGWSSFEEDDYESPNDDQDGEDDGDYESPNEEEEAPVEDDADYEPPPSNDEEALQNSILPAKPFPNSNSMYIDRPPSGKTPQQPPVPPQRPMAALPPPPAGRNHSPLPPPQTNHEEPSRSRNHKTAKLPAPSIDRSTKPPLDRSLAPFDREPFTLGKKPPFSDKPSIPAGRSLGEHLPKIQKPPLPPTTERHERSSPLPGKKPPVPKHGWGPDRRENDEDDVHQRPLPQPALLPMSSNTFPSRSTKPSPMNPLPSSHMPGAFSESNSSFPQSASLPPYFSQGPSNRPPIRAEGRNFPLPLPNKPRPPSPAEEENSLNEEWYVSYITRPEAEAALRKINQDGTFLVRDSSKKTTTNPYVLMVLYKDKVYNIQIRYQKESQVYLLGTGLRGKEDFLSVSDIIDYFRKMPLLLIDGKNRGSRYQCTLTHAAGYP
notes: SLP76 (SH2 domain-containing leukocyte protein of 76 kD); also called SH2 domain-containing leukocyte protein of 76 kD; source: HPK1-/- Jurkat cells, transiently transfected, in live cells
For B1, in the assay with HPK1 ΔCHD with LgBit tag, the “level of interaction at baseline relative to full-length wild-type” value is ~0.33 fold of full-length wild-type. For orientation: Ki means a measure of affinity in units of concentration, obtained from inhibition or displacement. B2 yielded a Ki in assay [1] of 5.99 µM.

B3: HPK1 kinase domain S171A (KD SA) (domain or fragment, UniProt Q92918 2-293, looked up)
chain: DVVDPDIFNRDPRDHYDLLQRLGGGTYGEVFKARDKVSGDLVALKMVKMEPDDDVSTLQKEILILKTCRHANIVAYHGSYLWLQKLWICMEFCGAGSLQDIYQVTGSLSELQISYVCREVLQGLAYLHSQKKIHRDIKGANILINDAGEVRLADFGISAQIGATLARRLAFIGTPYWMAPEVAAVALKGGYNELCDIWSLGITAIELAELQPPLFDVHPLRVLFLMTKSGYQPPRLKEKGKWSAAFHNFIKVTLTKSPKKRPSATKMLSHQLVSQPGLNRGLILDLLDKLKN
notes: source: recombinant, purified
On to B3, for which the binding result in assay [2] was “binds”.

B4: HPK1 kinase domain T165E/S171E/L221K (KD TSEE L221K) (domain or fragment, UniProt Q92918 2-293, looked up)
chain: DVVDPDIFNRDPRDHYDLLQRLGGGTYGEVFKARDKVSGDLVALKMVKMEPDDDVSTLQKEILILKTCRHANIVAYHGSYLWLQKLWICMEFCGAGSLQDIYQVTGSLSELQISYVCREVLQGLAYLHSQKKIHRDIKGANILINDAGEVRLADFGISAQIGAELARRLEFIGTPYWMAPEVAAVALKGGYNELCDIWSLGITAIELAELQPPLFDVHPKRVLFLMTKSGYQPPRLKEKGKWSAAFHNFIKVTLTKSPKKRPSATKMLSHQLVSQPGLNRGLILDLLDKLKN
notes: HPK1 (MAP4K1) kinase domain, residues D2-N293, TSEE backbone with L221K; source: recombinant, purified
As to B4, the Kd in assay [3] was 0.0379 µM.

B5: HPK1 kinase domain T165E/S171E (KD TSEE WT) (domain or fragment, UniProt Q92918 2-293, looked up)
chain: DVVDPDIFNRDPRDHYDLLQRLGGGTYGEVFKARDKVSGDLVALKMVKMEPDDDVSTLQKEILILKTCRHANIVAYHGSYLWLQKLWICMEFCGAGSLQDIYQVTGSLSELQISYVCREVLQGLAYLHSQKKIHRDIKGANILINDAGEVRLADFGISAQIGAELARRLEFIGTPYWMAPEVAAVALKGGYNELCDIWSLGITAIELAELQPPLFDVHPLRVLFLMTKSGYQPPRLKEKGKWSAAFHNFIKVTLTKSPKKRPSATKMLSHQLVSQPGLNRGLILDLLDKLKN
notes: HPK1 (MAP4K1) kinase domain, residues D2-N293, with the phosphomimetic mutations T165E/S171E; also called WT KD; active TSEE form; source: recombinant, purified
In the case of B5, the Kd in assay [3] is 0.0628 µM.
